Results as given in patent US20170267750A1, “Method of Treating Ovarian and Renal Cancer Using Antibodies Against T Cell Immunoglobulin Domain and Mucin Domain 1 (TIM-1) Antigen” (Celldex Therapeutics, Inc., priority 2005, published 2017).
Positions count from the first letter of the chain named.

T1: TIM-1 antigen (Homo sapiens, UniProt Q96D42, DEL158-162/L179P)
T1 construct: V5; His; made in house; host or cells: baculovirus expression system (pMelV5His vector / pBlueBac)
T1 sequence (Q96D42 with tags, fused parts or gaps DEL158-162/L179P): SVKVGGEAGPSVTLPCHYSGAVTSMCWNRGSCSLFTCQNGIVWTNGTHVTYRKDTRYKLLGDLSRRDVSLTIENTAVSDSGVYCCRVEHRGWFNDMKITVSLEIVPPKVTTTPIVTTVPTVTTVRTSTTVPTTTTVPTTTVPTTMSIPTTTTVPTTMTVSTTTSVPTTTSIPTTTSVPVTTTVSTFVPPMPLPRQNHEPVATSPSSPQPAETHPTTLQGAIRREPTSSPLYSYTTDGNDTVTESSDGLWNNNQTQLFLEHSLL

B1: mAb 2.76: fully human IgG4 kappa anti-TIM-1 monoclonal antibody; heavy chain SEQ ID NO: 46, light chain SEQ ID NO: 48 (antibody, listed as Homo Sapiens, V domains shown)
VH: NNNNEQSGGGVVQPGRSLRLSCAASGFTFSSYGMYWVRQAPGKGLEWVAVIWYDGSNKYYADSVKGRFTISRDNSKNTLYLQMNSLRAEDTAVYYCARDFYDSSRYHYGMDVWGQGTTVTVSSA
VL: NNNNTQCPLSLPVTPGEPASISCRSSQSLLDSDDGNTYLDWYLQKPGQSPQLLIYTVSYRASGVPDRFSGSGSGTDFTLKISRVEAEDVGVYYCMQRIEFPITFGQGTRLEIKR
B2: mAb 2.70: fully human IgG4 kappa anti-TIM-1 monoclonal antibody; heavy chain SEQ ID NO: 42, light chain SEQ ID NO: 44 (antibody, listed as Homo Sapiens, V domains shown)
VH: QVQLVESGGGVVQPGRSLRLSCAASGFIFSRYGMHWVRQAPGKGLKWVAVIWYDGSNKLYADSVKGRFTISRDNSKNTLYLQMNSLRAEDTAVYYCARDYYDNSRHHWGFDYWGQGTLVTVSSA
VL: B1 VL with N1D, N2I, N3V, N4M, C7T, Q27R, V57L, I98V
B3: mAb 1.37: fully human IgG2 kappa anti-TIM-1 monoclonal antibody; heavy chain SEQ ID NO: 6, light chain SEQ ID NO: 8 (antibody, listed as Homo Sapiens, V domains shown)
VH: EVQLVESGGGLVQPGGSLRLSCAASGFTFTNYWMSWVRQAPGKGLEWVANIQQDGSEKYYVDSVRGRFTISRDNAKNSLYLQMNSLRAEDSAVYYCARWDYWGQGTLVTVSSA
VL: DIVMTQTPLSSTVILGQPASISCRSSQSLVHSDGNTYLNWLQQRPGQPPRLLIYMISNRFSGVPDRFSGSGAGTDFTLKISRVEAEDVGVYYCMQATESPQTFGQGTKVEIKR
B4: mAb 2.59: fully human IgG4 kappa anti-TIM-1 monoclonal antibody; heavy chain SEQ ID NO: 34, light chain SEQ ID NO: 36 (antibody, listed as Homo Sapiens, V domains shown)
VH: NNNNNQSGPRLVKPSQTLSLTCTVSGGSISSDGYYWSWIRQHPGKGLEWIGYIYYSGSTFYNPSLKSRVAISVDTSKNQFSLKLSSVTAADTAVYYCARESPHSSNWYSGFDCWGQGTLVTVSSA
VL: NNNNTQSPDFQSVTPKEKVTITCRASQSIGSRLHWYQQKPDQSPKLLIKYASQSFSGVPSRFSGSGSGTDFTLTINSLEAEDAATYYCHQSSNLPFTFGPGTKVDIKR
B5: mAb 2.61: fully human IgG4 kappa anti-TIM-1 monoclonal antibody; heavy chain SEQ ID NO: 38, light chain SEQ ID NO: 40 (antibody, listed as Homo Sapiens, V domains shown)
VH: B2 VH with S7A, I28T, S30R, R31S, L59Y, A61T, A97V
VL: DIQMTQSPSSRCASVGDRVTITCRASQGIRNDLAWYQQKPGKAPKRLIYAASSLQSGVPSRFSGSRSGTEFTLTISSLQPEDFAAYYCLQHNSYPPSFGQGTKLEIKR

Molecular target: T1, TIM-1 antigen
Experiment: Epitope binning (antigen binding competition, Luminex)
Conditions: Table 9
Procedure: Certain antibodies, described herein were “binned” in accordance with the protocol described in U.S. Patent Application Publication No. 20030157730, published on Aug. 21, 2003, entitled “Antibody Categorization Based on Binding Characteristics.”
MxhIgG conjugated beads were prepared for coupling to primary antibody. The volume of supernatant needed was calculated using the following formula: (n+10)×50 μL (where n=total number of samples on plate). Where the concentration was known, 0.5 μg/mL was used. Bead stock was gently vortexed, then diluted in supernatant to a concentration of 2500 of each bead per well or 0.5×10^5/mL and incubated on a shaker in the dark at room temperature overnight, or 2 hours if at a known concentration of 0.5 μg/mL. Following aspiration, 50 μL of each bead was added to each well of a filter plate, then washed once by adding 100 μL/well wash buffer and aspirating. Antigen and controls were added to the filter plate 50 μL/well then covered and allowed to incubate in the dark for 1 hour on shaker. Following a wash step, a secondary unknown antibody was added at 50 μL/well using the same dilution (or concentration if known) as used for the primary antibody. The plates were then incubated in the dark for 2 hours at room temperature on shaker followed by a wash step. Next, 50 μL/well biotinylated mxhIgG diluted 1:500 was added and allowed to incubate in the dark for 1 hour on shaker at room temperature. Following a wash step, 50 μL/well Streptavidin-PE was added at 1:1000 and allowed to incubate in the dark for 15 minutes on shaker at room temperature. Following a wash step, each well was resuspended in 80 μL blocking buffer and read using a Luminex system.

Bin	Molecule
4	B1
6	B2
4	B3
1	B4
4	B5
